Patent publication CN116745314A

Biological target: spike glycoprotein of live SARS-CoV-2 (isolate USA-WA1/2020) (SARS-CoV-2) (UniProt P0DTC2)
Assay: cell-based or functional assay

S2D106-LS (antibody) was tested. Which EC50 (live SARS-CoV-2-luc neutralisation, MOI 0.1, 6 h) did it give?
The EC50 (live SARS-CoV-2-luc neutralisation, MOI 0.1, 6 h) was 6 ng/mL.

What about the EC90 (live SARS-CoV-2-luc neutralisation, MOI 0.1, 6 h) of the same substance?
The EC90 (live SARS-CoV-2-luc neutralisation, MOI 0.1, 6 h) was 22 ng/mL.

What about the IC50 (live SARS-CoV-2-luc neutralisation, MOI 0.1, 6 h) of the same substance?
Its IC50 (live SARS-CoV-2-luc neutralisation, MOI 0.1, 6 h) is 4.49 ng/mL.
